According to patent US20210238283A1 (Y BIOLOGICS, published 2021):

T1: recombinant human LAG-3-his (#16498-H08H, Sino Biological Inc.) (human, UniProt P18627 23-450)
T1 construct: Bought; also called LAG-3-His (WT); not shown: His tag at the carboxy terminal
T1 sequence (looked up): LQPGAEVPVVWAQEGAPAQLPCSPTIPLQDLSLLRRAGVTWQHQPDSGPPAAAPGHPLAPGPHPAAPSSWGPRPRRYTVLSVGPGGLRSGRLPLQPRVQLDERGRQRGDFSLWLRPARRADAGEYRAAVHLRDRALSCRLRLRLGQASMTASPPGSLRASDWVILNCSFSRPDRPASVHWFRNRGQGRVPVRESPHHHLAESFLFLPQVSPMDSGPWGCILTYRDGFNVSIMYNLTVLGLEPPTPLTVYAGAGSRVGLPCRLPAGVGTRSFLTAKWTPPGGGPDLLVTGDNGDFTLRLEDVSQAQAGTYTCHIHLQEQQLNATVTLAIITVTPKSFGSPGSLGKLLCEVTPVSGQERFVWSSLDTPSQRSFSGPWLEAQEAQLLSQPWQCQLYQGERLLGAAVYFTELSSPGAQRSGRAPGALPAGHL

T2: mouse LAG-3 overexpressed on HEK293E cells (mouse, UniProt Q61790 24-521)
T2 construct: whole, on cells; also called HEK293E-mLAG3; mLAG3 (Mouse)
T2 sequence (looked up): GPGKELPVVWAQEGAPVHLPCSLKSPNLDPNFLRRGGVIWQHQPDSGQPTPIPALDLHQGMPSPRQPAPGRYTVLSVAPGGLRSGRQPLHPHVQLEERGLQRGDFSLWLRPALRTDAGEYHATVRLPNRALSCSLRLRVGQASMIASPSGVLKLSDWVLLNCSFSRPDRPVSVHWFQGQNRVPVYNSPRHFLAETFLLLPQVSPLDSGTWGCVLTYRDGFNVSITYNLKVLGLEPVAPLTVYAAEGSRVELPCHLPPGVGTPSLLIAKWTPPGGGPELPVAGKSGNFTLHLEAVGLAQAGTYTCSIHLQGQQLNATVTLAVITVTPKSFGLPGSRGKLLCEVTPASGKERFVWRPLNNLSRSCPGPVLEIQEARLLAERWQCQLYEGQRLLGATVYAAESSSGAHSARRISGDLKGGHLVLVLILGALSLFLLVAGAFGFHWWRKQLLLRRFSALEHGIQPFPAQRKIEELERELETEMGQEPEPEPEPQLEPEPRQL

T3: human LAG-3 overexpressed on cells (human, UniProt P18627 23-525)
T3 construct: whole, on cells; also called HEK293E-hLAG3; hLAG3 (Human)
T3 sequence (looked up): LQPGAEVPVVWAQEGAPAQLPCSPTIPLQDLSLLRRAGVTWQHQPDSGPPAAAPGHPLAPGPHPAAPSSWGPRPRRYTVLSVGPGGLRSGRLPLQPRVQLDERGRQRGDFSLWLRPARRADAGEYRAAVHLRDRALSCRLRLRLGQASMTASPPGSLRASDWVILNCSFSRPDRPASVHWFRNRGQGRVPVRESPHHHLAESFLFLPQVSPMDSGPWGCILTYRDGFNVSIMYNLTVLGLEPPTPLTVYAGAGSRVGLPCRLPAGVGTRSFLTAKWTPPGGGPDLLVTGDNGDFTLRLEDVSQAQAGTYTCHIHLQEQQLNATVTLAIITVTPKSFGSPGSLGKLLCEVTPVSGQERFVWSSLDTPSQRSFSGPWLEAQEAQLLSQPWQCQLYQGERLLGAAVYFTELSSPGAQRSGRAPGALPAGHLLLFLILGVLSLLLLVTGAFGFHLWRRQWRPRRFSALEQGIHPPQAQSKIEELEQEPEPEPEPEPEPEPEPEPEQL

T4: recombinant human LAG-3 extracellular domain fused with mouse Fc (hLAG-3-mFc) (human, UniProt P18627 29-450)
T4 construct: range 29-450; Made in HEK293F cells; also called human LAG-3 antigen; wild-type (WT) LAG-3; not shown: mouse Fc (mFc) at the carboxy terminal
T4 sequence (looked up): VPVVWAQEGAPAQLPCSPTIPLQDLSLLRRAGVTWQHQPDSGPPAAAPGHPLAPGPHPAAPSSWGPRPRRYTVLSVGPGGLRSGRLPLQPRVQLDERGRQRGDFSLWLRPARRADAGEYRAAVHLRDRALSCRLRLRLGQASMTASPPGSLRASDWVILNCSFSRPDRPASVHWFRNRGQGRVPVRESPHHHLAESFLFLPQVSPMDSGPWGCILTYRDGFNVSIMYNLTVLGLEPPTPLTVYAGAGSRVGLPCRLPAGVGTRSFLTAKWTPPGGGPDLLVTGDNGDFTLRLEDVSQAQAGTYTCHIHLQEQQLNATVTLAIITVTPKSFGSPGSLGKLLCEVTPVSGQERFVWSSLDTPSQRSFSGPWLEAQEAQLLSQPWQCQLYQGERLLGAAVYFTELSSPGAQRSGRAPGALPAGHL

T5: recombinant mouse LAG-3 fused with mouse Fc (mLAG-Fc) (mouse, UniProt Q61790 24-442, limits assumed)
T5 construct: also called mouse LAG-3 antigen; not shown: mouse Fc (mFc) at the carboxy terminal
T5 sequence (looked up): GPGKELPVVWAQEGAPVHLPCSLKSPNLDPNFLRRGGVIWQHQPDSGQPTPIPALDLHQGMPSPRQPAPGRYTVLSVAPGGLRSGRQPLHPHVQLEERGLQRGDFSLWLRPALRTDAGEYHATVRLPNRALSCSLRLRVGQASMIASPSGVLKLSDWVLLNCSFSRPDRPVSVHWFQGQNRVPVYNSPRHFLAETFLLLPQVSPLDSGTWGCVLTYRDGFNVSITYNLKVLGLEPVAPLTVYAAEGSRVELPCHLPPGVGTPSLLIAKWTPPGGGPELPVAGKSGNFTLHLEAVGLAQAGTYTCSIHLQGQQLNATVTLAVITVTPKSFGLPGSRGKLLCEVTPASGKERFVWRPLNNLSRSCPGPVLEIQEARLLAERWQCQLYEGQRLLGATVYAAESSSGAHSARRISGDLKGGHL

T6: monkey (Rhesus monkey) LAG-3 overexpressed on HEK293E cells (Rhesus monkey, UniProt A0A5F8A874 23-533)
T6 construct: whole, on cells; also called HEK293E-MrhLAG3; MrhLAG3 (Rhesus Monkey)
T6 sequence: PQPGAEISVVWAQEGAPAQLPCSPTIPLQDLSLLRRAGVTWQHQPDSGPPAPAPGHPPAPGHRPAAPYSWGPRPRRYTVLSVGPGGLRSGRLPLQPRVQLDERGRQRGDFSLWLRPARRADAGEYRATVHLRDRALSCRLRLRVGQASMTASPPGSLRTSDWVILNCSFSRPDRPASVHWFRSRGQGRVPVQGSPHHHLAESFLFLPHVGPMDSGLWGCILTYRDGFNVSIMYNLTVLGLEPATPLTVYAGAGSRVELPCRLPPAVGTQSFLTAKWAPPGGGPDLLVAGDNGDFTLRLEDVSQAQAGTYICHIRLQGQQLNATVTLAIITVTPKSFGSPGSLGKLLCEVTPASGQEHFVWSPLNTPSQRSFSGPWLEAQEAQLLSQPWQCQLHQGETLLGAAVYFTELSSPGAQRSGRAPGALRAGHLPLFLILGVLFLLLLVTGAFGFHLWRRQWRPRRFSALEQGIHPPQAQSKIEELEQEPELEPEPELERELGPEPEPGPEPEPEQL


How the values were obtained:
[1] = molecular target: T1, recombinant human LAG-3-his …; assay: scFv phage ELISA on coated antigen, A490
[2] = molecular target: T2, mouse LAG-3 overexpressed on HEK293E …; assay: flow cytometry, HEK293E cells overexpressing mouse LAG-3
Method: (§1) After that, the cells were washed three times with PBS containing 2% FBS and then subjected to the reaction for 30 minutes at 4° C. with anti-human IgG antibody (#FI-3000, Vectorlabs) linked with FITC fluorescent. The cells were washed by the same washing process as above followed by suspension in 0.2 ml PBS containing 2% FBS. The cells were then analyzed by FACSCanto II flow cytometer.

[3] = molecular target: T3, human LAG-3 overexpressed on cells; assay: flow cytometry, HEK293E cells overexpressing LAG-3, antibody 2 µg/ml
Method: as §1

[4] = molecular target: T3, human LAG-3 overexpressed on cells; assay: cell-based or functional assay
[5] = molecular target: T4, recombinant human LAG-3 extracellular …; assay: BLI (Octet QKe), 1:1 global fit
Method: (§2) After stabilization for 10 minutes in a buffer (#18-1042, Fortebio Inc.), immobilized antigen or antibody was washed out for 5 minutes with the buffer. The antibody or antigen desired for binding was prepared at different concentrations (0.94-60 nM) in a 96-well plate (#655209, Greiner Bio-One, USA) and subjected to the association reaction for 10 minutes followed by dissociation reaction for 10 minutes or 30 minutes.

[6] = molecular target: T7, recombinant monkey LAG-3 fused with mouse Fc (MrhLAG-3-mFc) (monkey); assay: BLI (Octet QKe), 1:1 global fit
T7 construct: also called monkey LAG-3 antigen
Method: as §2

[7] = molecular target: T5, recombinant mouse LAG-3 fused with …; assay: BLI (Octet QKe), 1:1 global fit
Method: as §2

[8] = molecular target: T4, recombinant human LAG-3 extracellular …; assay: Octet biolayer interferometry, 1:1 global fit
Method: as §2

[9] = molecular target: T7, recombinant monkey LAG-3 fused with …; assay: Octet biolayer interferometry, 1:1 global fit
Method: as §2

[10] = molecular target: T3, human LAG-3 overexpressed on cells; assay: flow cytometry on HEK293E-hLAG3 cells, MFI, fitted curve
Method: as §1

[11] = molecular target: T2, mouse LAG-3 overexpressed on HEK293E …; assay: flow cytometry on HEK293E-mLAG3 cells, MFI, fitted curve
Method: as §1

[12] = molecular target: T6, monkey (Rhesus monkey) LAG-3 …; assay: flow cytometry on HEK293E-MrhLAG3 cells, MFI, fitted curve
Method: as §1

[13] = molecular target: T5, recombinant mouse LAG-3 fused with …; assay: BLI (Octet QKe)
[14] = molecular target: T2, mouse LAG-3 overexpressed on HEK293E …; assay: flow cytometry on HEK293E-mLAG3 cells, MFI
Method: as §1

Row | binding result [1] | binding result [2] | binding result [3] | EC50 (µg/ml), LAG3/MHC class II Blockade bioassay [4] [µg/mL] | Kd [5] [nM] | Kd [6] [nM] | Kd [7] [nM] | koff [8] [s⁻¹] | kon [8] [M⁻¹ s⁻¹] | koff [9] [s⁻¹] | kon [9] [M⁻¹ s⁻¹] | EC50 [10] [µg/mL] | EC50 [11] [µg/mL] | EC50 [12] [µg/mL] | binding result [13] | Binder | binding result [14]
1 | binds | no binding (tested: 2 µg/ml) | binds | – | – | – | – | – | – | – | – | – | – | – | – | LAG3-1E09_AM_2E04 (antibody, V domains shown, Tested as full IgG) VH: EVQLVESGGDLVKPGGSLRLSCAASGFSFNDHYMNWVRQAPGKGLEWVAYIDTSATYIYYADSVKGRFTISRDNAKNSLYLQMNSLRAEDTAVYYCARDNWGSLDYWGQGTLVTVSS VL: DIQMTQSPSSLSASVGDRVTIICRASQSISNYLNWYQQEPGKAPKLLIYDASNLESGVPSRFSGSGSGTDFTLTISSLQPEDFATYYCQQSYSTPYTFGQGTKVEIK | –
2 | – | – | – | 0.0822 | 0.136 | 0.629 | 2.62 | 1.61e-05 | 119000 | 3.23e-05 | 51400 | 0.0297 | 1.74 | 0.156 | – | LAG3-1E09_AM_2H01 (antibody, V domains shown, Tested as full IgG) VH: EVQLVESGGDLVQPGGSLRLSCAASGFTFSDHYMNWVRQAPGKGLEWVAYIDTSATYIYYADSVKGRFTISRDNAKNSLYLQMNSLRAEDTAVYYCARDNWGSLDYWGQGTLVTVSS VL: DIQMTQSPSSLSASVGDRVTITCQASQDISNYLNWYQQKPGKAPNLLIYDASTLETGVPSRFSGSGYGTDFTLTISGLQPDDFALYYCQQSYSTPYSFGPGTKVEIK | –
3 | – | – | – | 0.0938 | 0.0906 | 0.456 | – | 1.03e-05 | 114000 | 3.7e-05 | 81100 | 0.0926 | – | 0.301 | no binding | LAG3-1E09_FR_1E05 (antibody, V domains shown, Tested as full IgG) VH: EVQLVESGGGLVQPGGSLRLSCAASGFSFSDHYMNWVRQAPGKGLEWVAYIDTSATYIYYADSVKGRFTISRDNAKNSLYLQMNSLRAEDTAVYYCARDNWGSLDYWGQGTLVTVSS VL: DIQMTQSPSSLSASVGDRVTITCRASQSISSWLAWYQHKPGKAPKLLIYDASNLETGAPSRFSGSGSGTDFTFTIYSLQPEDVATYYCQQYDTVPPTFGPGTKVDIK | no binding (tested: Log10[Ab] about 0.8, µg/ml)
